# According to paper PMC7995010:
# Biological target: ACE2‐Fc produced in glycoengineered ΔXT/FT Nicotiana benthamiana (human) (UniProt Q9BYF1)
# Assay: SEC-MALS; isolated dimer fraction of ACE2‐Fc; native molecular mass by MALS
substance,measurement,value
ACE2‐Fc produced in glycoengineered ΔXT/FT Nicotiana benthamiana (from UniProt Q9BYF1 18-615) (Fc fusion),stoichiometry N,2
